Reference: patent US10800813 (Bicycle, dated 2020)
Read-outs that look alike come from different tables or passages of the source. Numbered stars: 1 amine (or outer) side, 2 acyl side, 3 side chain; on linkers, the order of the positions; unused ones are H or OH. Bridge positions count the residues as written; N and C are the ends. Square brackets hold non-standard residues; d marks the D form. Ends that are not written are not given here. Ind = L-indoline-2-carboxylic acid, O=C([C@@H]1Cc2ccccc2N1[*:1])[*:2]; Tpi = O=C(O)[C@@H]1Cc2c([nH]c3ccccc23)CN1; NMeW = CN[C@@H](Cc1c[nH]c2ccccc12)C(=O)O; TBMB = c1c(C[*:1])cc(C[*:3])cc1C[*:2]; NMeS = CN[C@@H](CO)C(=O)O; NMeA = CN[C@@H](C)C(=O)O; Aze = O=C(O)[C@@H]1CCN1; Aib = CC(C)(N)C(=O)O

What was measured:
Assay in all cases: enzyme inhibition assay
human plasma Kallikrein [1] = biological target: T1, human plasma Kallikrein (human, UniProt P03952 20-638, limits assumed)
T1 construct: also called hPK; human PK

human plasma Kallikrein [2] = biological target: T1, human plasma Kallikrein; remark: listed apart in the source
human plasma Kallikrein [3] = biological target: T1, human plasma Kallikrein; remark: listed apart in the source
human plasma Kallikrein [4] = biological target: T1, human plasma Kallikrein; remark: listed apart in the source
Rat plasma Kallikrein = biological target: T2, Rat plasma Kallikrein (rat, UniProt P14272 391-638, limits assumed)
T2 construct: domain: catalytic domain; also called rPK; rat PK

human plasma Kallikrein [5] = biological target: T1, human plasma Kallikrein; remark: listed apart in the source

T1 sequence (P03952 20-638 limits assumed): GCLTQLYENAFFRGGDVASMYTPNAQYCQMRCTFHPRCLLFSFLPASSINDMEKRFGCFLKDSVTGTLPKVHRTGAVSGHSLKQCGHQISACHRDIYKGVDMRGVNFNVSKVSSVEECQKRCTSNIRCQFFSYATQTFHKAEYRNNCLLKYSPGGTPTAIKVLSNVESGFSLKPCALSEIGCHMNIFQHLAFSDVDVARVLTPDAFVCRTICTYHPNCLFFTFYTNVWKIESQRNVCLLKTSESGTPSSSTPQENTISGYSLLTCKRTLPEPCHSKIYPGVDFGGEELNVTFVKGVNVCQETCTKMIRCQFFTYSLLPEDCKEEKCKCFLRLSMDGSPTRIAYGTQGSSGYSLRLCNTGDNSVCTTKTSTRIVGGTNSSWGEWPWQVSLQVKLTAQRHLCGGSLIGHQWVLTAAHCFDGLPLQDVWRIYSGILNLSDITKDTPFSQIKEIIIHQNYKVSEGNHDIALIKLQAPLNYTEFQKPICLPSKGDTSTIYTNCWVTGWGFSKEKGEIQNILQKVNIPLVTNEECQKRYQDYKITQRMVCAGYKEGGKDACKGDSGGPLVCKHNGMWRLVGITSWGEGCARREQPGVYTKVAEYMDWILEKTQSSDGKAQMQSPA
T2 sequence (P14272 391-638 limits assumed): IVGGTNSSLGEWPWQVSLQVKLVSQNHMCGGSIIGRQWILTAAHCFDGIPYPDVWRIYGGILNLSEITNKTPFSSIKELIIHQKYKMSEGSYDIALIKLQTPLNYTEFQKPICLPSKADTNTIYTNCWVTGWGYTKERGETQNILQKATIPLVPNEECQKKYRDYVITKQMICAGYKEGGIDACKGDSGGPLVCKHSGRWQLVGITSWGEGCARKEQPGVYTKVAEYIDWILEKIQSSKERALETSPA

Row | Binder | Ki (human plasma Kallikrein [3]) | IC50 (human plasma Kallikrein [4]) | IC50 (Rat plasma Kallikrein) | other results
1 | Ac-CS[NMeW]PARCLHQDLC-NH2 (linker 1-7-13 via TBMB; SMILES CC(=O)N[C@H]1CSCc2cc3cc(c2)CSC[C@H](NC(=O)[C@H](CCCNC(=N)N)NC(=O)[C@H](C)NC(=O)[C@@H]2CCCN2C(=O)[C@H](Cc2c[nH]c4ccccc24)N(C)C(=O)[C@H](CO)NC1=O)C(=O)N[C@@H](CC(C)C)C(=O)N[C@@H](Cc1c[nH]cn1)C(=O)N[C@@H](CCC(N)=O)C(=O)N[C@@H](CC(=O)O)C(=O)N[C@@H](CC(C)C)C(=O)N[C@H](C(N)=O)CSC3) [Ac-(06-34-18) NMeTrp2] | – | – | – | Ki (human plasma Kallikrein [1]): 228 nM
2 | Ac-C[NMeS]WP[NMeA]RCLHQDLC-NH2 (linker 1-7-13 via TBMB; SMILES CC(=O)N[C@H]1CSCc2cc3cc(c2)CSC[C@H](NC(=O)[C@H](CCCNC(=N)N)NC(=O)[C@H](C)N(C)C(=O)[C@@H]2CCCN2C(=O)[C@H](Cc2c[nH]c4ccccc24)NC(=O)[C@H](CO)N(C)C1=O)C(=O)N[C@@H](CC(C)C)C(=O)N[C@@H](Cc1c[nH]cn1)C(=O)N[C@@H](CCC(N)=O)C(=O)N[C@@H](CC(=O)O)C(=O)N[C@@H](CC(C)C)C(=O)N[C@H](C(N)=O)CSC3) [Ac-(06-34-18) NMeSer1, NMeAla4] | – | – | – | Ki (human plasma Kallikrein [1]): 444 nM
3 | Ac-CSW[Tpi]ARCLHQDLC-NH2 (linker 1-7-13 via TBMB; SMILES CC(=O)N[C@H]1CSCc2cc3cc(c2)CSC[C@H](NC(=O)[C@H](CCCNC(=N)N)NC(=O)[C@H](C)NC(=O)[C@@H]2Cc4c([nH]c5ccccc45)CN2C(=O)[C@H](Cc2c[nH]c4ccccc24)NC(=O)[C@H](CO)NC1=O)C(=O)N[C@@H](CC(C)C)C(=O)N[C@@H](Cc1c[nH]cn1)C(=O)N[C@@H](CCC(N)=O)C(=O)N[C@@H](CC(=O)O)C(=O)N[C@@H](CC(C)C)C(=O)N[C@H](C(N)=O)CSC3) [Ac-(06-34-18) NorHar3] | – | – | – | Ki (human plasma Kallikrein [2]): 2.99 nM
4 | Ac-CAPWSRCLHQDLC-NH2 (linker 1-7-13 via TBMB; SMILES CC(=O)N[C@H]1CSCc2cc3cc(c2)CSC[C@H](NC(=O)[C@H](CCCNC(=N)N)NC(=O)[C@H](CO)NC(=O)[C@H](Cc2c[nH]c4ccccc24)NC(=O)[C@@H]2CCCN2C(=O)[C@H](C)NC1=O)C(=O)N[C@@H](CC(C)C)C(=O)N[C@@H](Cc1c[nH]cn1)C(=O)N[C@@H](CCC(N)=O)C(=O)N[C@@H](CC(=O)O)C(=O)N[C@@H](CC(C)C)C(=O)N[C@H](C(N)=O)CSC3) [Ac-(06-34-18) Scram 3] | 1890 nM | – | – | –
5 | Ac-CSW[Ind]ARCLHQDLC-NH2 (linker 1-7-13 via TBMB; SMILES CC(=O)N[C@H]1CSCc2cc3cc(c2)CSC[C@H](NC(=O)[C@H](CCCNC(=N)N)NC(=O)[C@H](C)NC(=O)[C@@H]2Cc4ccccc4N2C(=O)[C@H](Cc2c[nH]c4ccccc24)NC(=O)[C@H](CO)NC1=O)C(=O)N[C@@H](CC(C)C)C(=O)N[C@@H](Cc1c[nH]cn1)C(=O)N[C@@H](CCC(N)=O)C(=O)N[C@@H](CC(=O)O)C(=O)N[C@@H](CC(C)C)C(=O)N[C@H](C(N)=O)CSC3) [Ac-(06-34-18) Ind3] | – | – | – | Ki (human plasma Kallikrein [2]): 1.35 nM
6 | Ac-CWARSPCLHQDLC-NH2 (linker 1-7-13 via TBMB; SMILES CC(=O)N[C@H]1CSCc2cc3cc(c2)CSC[C@H](NC(=O)[C@@H]2CCCN2C(=O)[C@H](CO)NC(=O)[C@H](CCCNC(=N)N)NC(=O)[C@H](C)NC(=O)[C@H](Cc2c[nH]c4ccccc24)NC1=O)C(=O)N[C@@H](CC(C)C)C(=O)N[C@@H](Cc1c[nH]cn1)C(=O)N[C@@H](CCC(N)=O)C(=O)N[C@@H](CC(=O)O)C(=O)N[C@@H](CC(C)C)C(=O)N[C@H](C(N)=O)CSC3) [Ac-(06-34-18) Scram 4] | 67500 nM | – | – | –
7 | ACSWPARCVHQDLCA (linker 2-8-14 via TBMB; not fully specified (N-terminus, C-terminus)) [06-34-01] | – | 0.15 nM | 6.12 nM | –
8 | ACRWPARCMHQDLCA (linker 2-8-14 via TBMB; not fully specified (N-terminus, C-terminus)) [06-34-04] | – | 0.075 nM | 0.56 nM | –
9 | ACSWPAKCLHQDLCA (linker 2-8-14 via TBMB, also called WPAK peptide) [06-34-19 (01 + 05 + R/K)] | – | – | 4.67 nM | –
10 | ACSWPARCTHQDLCA (linker 2-8-14 via TBMB; not fully specified (N-terminus, C-terminus)) [06-34-03 (01 + 02)] | – | 0.082 nM | 0.87 nM | –
11 | ACRWPARCLHQDLCA (linker 2-8-14 via TBMB; not fully specified (N-terminus, C-terminus)) [06-34-05] | – | 0.076 nM | 0.62 nM | –
12 | ACSWPARCMHQDLCA (linker 2-8-14 via TBMB; not fully specified (N-terminus, C-terminus)) [06-34-17 (01 + 04)] | – | 0.073 nM | 0.44 nM | –
13 | ACRWPARCTHQDLCA (linker 2-8-14 via TBMB; not fully specified (N-terminus, C-terminus)) [06-34-02] | – | 0.16 nM | 1.09 nM | –
14 | Ac-CWASPRCLHQDLC-NH2 (linker 1-7-13 via TBMB; SMILES CC(=O)N[C@H]1CSCc2cc3cc(c2)CSC[C@H](NC(=O)[C@H](CCCNC(=N)N)NC(=O)[C@@H]2CCCN2C(=O)[C@H](CO)NC(=O)[C@H](C)NC(=O)[C@H](Cc2c[nH]c4ccccc24)NC1=O)C(=O)N[C@@H](CC(C)C)C(=O)N[C@@H](Cc1c[nH]cn1)C(=O)N[C@@H](CCC(N)=O)C(=O)N[C@@H](CC(=O)O)C(=O)N[C@@H](CC(C)C)C(=O)N[C@H](C(N)=O)CSC3) [Ac-(06-34-18) Scram 2] | 11400 nM | – | – | –
15 | Ac-CSW[Aib]ARCLHQDLC-NH2 (linker 1-7-13 via TBMB; SMILES CC(=O)N[C@H]1CSCc2cc3cc(c2)CSC[C@H](NC(=O)[C@H](CCCNC(=N)N)NC(=O)[C@H](C)NC(=O)C(C)(C)NC(=O)[C@H](Cc2c[nH]c4ccccc24)NC(=O)[C@H](CO)NC1=O)C(=O)N[C@@H](CC(C)C)C(=O)N[C@@H](Cc1c[nH]cn1)C(=O)N[C@@H](CCC(N)=O)C(=O)N[C@@H](CC(=O)O)C(=O)N[C@@H](CC(C)C)C(=O)N[C@H](C(N)=O)CSC3) [Ac-(06-34-18) Aib3] | – | – | – | Ki (human plasma Kallikrein [2]): 1.2 nM
16 | Ac-C[NMeS]WPARCLHQDLC-NH2 (linker 1-7-13 via TBMB; SMILES CC(=O)N[C@H]1CSCc2cc3cc(c2)CSC[C@H](NC(=O)[C@H](CCCNC(=N)N)NC(=O)[C@H](C)NC(=O)[C@@H]2CCCN2C(=O)[C@H](Cc2c[nH]c4ccccc24)NC(=O)[C@H](CO)N(C)C1=O)C(=O)N[C@@H](CC(C)C)C(=O)N[C@@H](Cc1c[nH]cn1)C(=O)N[C@@H](CCC(N)=O)C(=O)N[C@@H](CC(=O)O)C(=O)N[C@@H](CC(C)C)C(=O)N[C@H](C(N)=O)CSC3) [Ac-(06-34-18) NMeSer1] | – | – | – | Ki (human plasma Kallikrein [1]): 0.5 nM
17 | Ac-CSAAARCLHQDLC-NH2 (linker 1-7-13 via TBMB; SMILES CC(=O)N[C@H]1CSCc2cc3cc(c2)CSC[C@H](NC(=O)[C@H](CCCNC(=N)N)NC(=O)[C@H](C)NC(=O)[C@H](C)NC(=O)[C@H](C)NC(=O)[C@H](CO)NC1=O)C(=O)N[C@@H](CC(C)C)C(=O)N[C@@H](Cc1c[nH]cn1)C(=O)N[C@@H](CCC(N)=O)C(=O)N[C@@H](CC(=O)O)C(=O)N[C@@H](CC(C)C)C(=O)N[C@H](C(N)=O)CSC3) [Ac-(06-34-18) A2A3] | 18500 nM | – | – | fold reduction of binding against Ac-06-34-18(TMB)-NH2 (human plasma Kallikrein [5]): ~100000 fold
18 | Ac-CSAQARCLHQDLC-NH2 (linker 1-7-13 via TBMB; SMILES CC(=O)N[C@H]1CSCc2cc3cc(c2)CSC[C@H](NC(=O)[C@H](CCCNC(=N)N)NC(=O)[C@H](C)NC(=O)[C@H](CCC(N)=O)NC(=O)[C@H](C)NC(=O)[C@H](CO)NC1=O)C(=O)N[C@@H](CC(C)C)C(=O)N[C@@H](Cc1c[nH]cn1)C(=O)N[C@@H](CCC(N)=O)C(=O)N[C@@H](CC(=O)O)C(=O)N[C@@H](CC(C)C)C(=O)N[C@H](C(N)=O)CSC3) [Ac-(06-34-18) A2Q3] | 15800 nM | – | – | fold reduction of binding against Ac-06-34-18(TMB)-NH2 (human plasma Kallikrein [5]): ~100000 fold
19 | Ac-CPSAWRCLHQDLC-NH2 (linker 1-7-13 via TBMB; SMILES CC(=O)N[C@H]1CSCc2cc3cc(c2)CSC[C@H](NC(=O)[C@H](CCCNC(=N)N)NC(=O)[C@H](Cc2c[nH]c4ccccc24)NC(=O)[C@H](C)NC(=O)[C@H](CO)NC(=O)[C@@H]2CCCN2C1=O)C(=O)N[C@@H](CC(C)C)C(=O)N[C@@H](Cc1c[nH]cn1)C(=O)N[C@@H](CCC(N)=O)C(=O)N[C@@H](CC(=O)O)C(=O)N[C@@H](CC(C)C)C(=O)N[C@H](C(N)=O)CSC3) [Ac-(06-34-18) Scram 1] | 1090 nM | – | – | –
20 | Ac-CSW[Aze]ARCLHQDLC-NH2 (linker 1-7-13 via TBMB; SMILES CC(=O)N[C@H]1CSCc2cc3cc(c2)CSC[C@H](NC(=O)[C@H](CCCNC(=N)N)NC(=O)[C@H](C)NC(=O)[C@@H]2CCN2C(=O)[C@H](Cc2c[nH]c4ccccc24)NC(=O)[C@H](CO)NC1=O)C(=O)N[C@@H](CC(C)C)C(=O)N[C@@H](Cc1c[nH]cn1)C(=O)N[C@@H](CCC(N)=O)C(=O)N[C@@H](CC(=O)O)C(=O)N[C@@H](CC(C)C)C(=O)N[C@H](C(N)=O)CSC3, also called Ac-06-34-18(TMB)-NH2 Aze3) [Ac-(06-34-18) Aze3] | – | – | – | Ki (human plasma Kallikrein [2]): 0.06 nM; fold increase in affinity against wildtype (human plasma Kallikrein [5]): 3 fold
